Experiments:
[1] = substrate: O=C1C=CC(=O)C(Cl)=C1; test: purified protein; details: pH 5.0; 30.0 °C
[2] = substrate: O=C1C=CC(=O)C=C1; test: purified protein; details: pH 4.0; 30.0 °C

B1: recPDH1 (recombinant pyranose dehydrogenase PDH1) (Macropsalliota meleagris) (protein)
chain: AITYQHPDDLPSGVDYDFIVAGGGTAGLVVASRLSENSNWKVLVIEAGPSNKDAFVTRVPGLASTLGAGSPIDWNYTTIPQDGLDGRSLDYPRAKILGGCSTHNGMVYTRGSKDDWNSWAGIIGDQGLGWDSILPAIKKAEKFTQDFTDQSVKGHIDPSVHGFDGKLSVSAAYSNISFNDLLFETTKELNAEFPFKLDMNDGKPIGLGWTQYTIDNHAERSSSATSYLESTGDNVHVLVNTLVTRVLSASGNGTDFRKVEFAVDANSPKKQLEAKKEVIVAGGVIASPQILMNSGIGERKVLQAVGIDTLIDNPSVGKNLSDQGATSVMFDTTLPSTDFDVDAALTEWTNSHTGPLARGARLNHLTFVRLPDDKLNGQDPSSGKNSPHIEFQFAQITPQVPTLGVPKQAPLPAANSYRLLLQLAVVNLYSISRGSISLSDNNPFTYPLIDLNMFKEDIDIAILREGIRSAGRMFSSKAFKNSVNKFVYPPADATSDEDLDAFLRSSTFSYVHGVGTLSMSPKGASWGVVNPDFKVKGTSGLRVVDASVIPHAPAAHTQLPVYAFAEYASALIAKSYN
For B1, the Km [1] was 620 ± 110 µM, the kcat/Km [1] was 20900 M⁻¹ s⁻¹ and the Km [2] was 1380 ± 280 µM. The kcat/Km [2] was 54400 M⁻¹ s⁻¹.

Source: paper PMC3315643
